From patent US20210198347A1 (Chugai, published 2021)
Where a chain is given by its changes, count along the chain named.

B1: COS0448oo-SG1148 (antibody, human IgG1, kappa, V domains shown)
VH: QSVEESGGRLVTPGTPLTLTCTVSGFSLSNYGMIWVRQAPGEGLEYIGFVSGSGSAYYANWVKGRFTISKTSTTVDLKMTSLTTEDTATYFCARGAYNTDSYSYSLYYGMDLWGPGTLVTVSS
VL: QIVMTQTPASVEVAVGGTVTIKCQASQSIYSYLSWYQQKPGQPPKLLIYGASTLASGVPSRFKGSRSGTEFTLTISDLECADAATYYCQSNYATTTTYGTFGGGTKVEIKR
notes: Rabbit B-cell derived variable regions; also called COS448; COS44800(-SG1148)
B2: COS0499ee-SG1148 (antibody, human IgG1, kappa, V domains shown)
VH: QSLEESGGRLVTPGTPLTLTCTASGFSLSNYNMAWVRQAPGKGLEWIGIIETTTNTYYARWARGRFTISKTSSTTVDLQIASPTTEDTATYFCGRRVSNSHDLWGPGTLVTVSS
VL: AYDMTQTPASVSAAVGGTVTINCQASQTIGGWCAWYQQKPGQPPKLLIYKASTLASGVSSRFKGSGSGTEFALTISDLECDDAATYYCQHGYYTSSTIENTFGGGTKVEIKR
notes: also called COS499; COS499ee(-SG1148)
B3: COS0547gg-SG1148 (antibody, human IgG1, kappa, V domains shown)
VH: QSLEESGGRLVTPGTPLTLTCTASGFSLSSYHMDWVRQAPGKGLEWIGIITYTGDTYYATWAKGRFTISKTSSTTVDLKMASLTTEDTATYFCARRQYDAYNVWGPGTLVTVSS
VL: AYDMTQTPASVEVAVGGTVTIKCQASQSINNYLAWYQQKPGQPPKLLIYYASTLASGVPSRFKGSRSGTEFTLTISGVECADAATYYCQHGYYTSSNIDSVFGGGTKVEIKR
B4: COR0205gg-SG1148 (antibody, human IgG1, kappa, V domains shown)
VH: QSLEESGGGLFKPTDTLTLTCTVSGFSLSSNAMSWVRQAPGKGLEYIGIIYLTGVTYYATWAKGRFTISKTSTTVDLKITSPTTEDTATYFCAGGEFSLWGPGTLVTVSS
VL: DIIMTQTPASVEAAVGGTVTIKCQASQGIDNYFSWHQQKPGQPPKLLIYKASTLASGVSSRFKGSGSGTEFTLTISDLECDDAATYYCQCTYGYNINDNYGNAFGGGTKVEIKR
notes: Anti-C1r antibody; also called COR205gg(-SG1148)
B5: COR0208cc-SG1148 (antibody, human IgG1, kappa, V domains shown)
VH: QSVEESGGRLVTPGTPLTLTCTVSGFSLSNYYMNWVRQAPGKGLEWIGIIASDDNTWYASWAKGRFTISKTSTTVDLKITSPTTEDTATYFCARDLDVGYGSGWYDLWGQGTLVTVSS
VL: AAVLTQTPSPVSVAVGGTVTINCQASQSVYNNNYLAWYQQEPGHRPKLLIYRASKLASGVPSRFSGSGSGTQFTLTISGVQCDDAATYYCLGGYDDFTDTTFGGGTKVEIKR
notes: Anti-C1r antibody; also called COR208; COR208cc(-SG1148)
B6: COR0212bb-SG1148 (antibody, human IgG1, kappa, V domains shown)
VH: QEQLKESGGGLVTPGGTLTLTCTASGFSLSSYDMSWVRQAPGKGLDWIGIINTGGSAYYATWAKGRFTISKTSTTVDLKITSPTTEDTATYFCGRKINDAFDPWGPGTLVTVSS
VL: AQVLTQTPFSVSAAVGGTVTINCQASESISSNLAWYQQKPGQPPKLLIYDASDLASGVPSRFKGSGSGKQFTLTISGVQCDDAATYFCQHGWIYDTIDSNCFGGGTKVEIKR
notes: Anti-C1r antibody
B7: COR0278bb-SG1148 (antibody, human IgG1, kappa, V domains shown)
VH: QSLEESGGRLVTPGTPLTLTCTASGFSLSSYDMTWVRQAPGKGLEWIGIIYTLGSAYYASWAKGRFTISRTSTTVDLKMTSPTTEDTATYFCARGGDSYGAVDTAFDLWGPGTLVTVSS
VL: AQVLTQTPSPVSAAVGGTVTISCQSSPSVYSNYLSWYQQKPGQPPKLLIYRASRLASGVPSRFKGSGSGTQFTLTISEVQCDDAATYYCQGYFGNGINAFGGGTKVEIKR
notes: Anti-C1r antibody
B8: COR0067ff-SG1148 (antibody, human IgG1, kappa, V domains shown)
VH: QSLEESGGGLVQPEGSLTLTCKASGIDFSSNAMCWVRQAPGKGLEWIGCIYTGSTTIWYASWAKGRFTISKTSSTTVTLQLNSLTVADTATYFCARRDSSSGYAFKLWGPGTLVTVSS
VL: DIVMTQTPSSVSAAVGGTVTIKCQASENIYSNLAWYQQKSGQPPNLLIYGASTLESGVPSRFKGSGSGTEFTLTISDLECADAAIYYCQCTYDDSSTFGGGTKVEIKR
notes: Anti-C1r antibody
B9: COR0338gg-SG1148 (antibody, human IgG1, kappa, V domains shown)
VH: B8 VH with G48A, S61T, D98A
VL: B8 VL with I2V, S9F, N28S, S40P, A81D
notes: Anti-C1r antibody
B10: COR0011bb-SG1148 (antibody, human IgG1, kappa, V domains shown)
VH: QSLEESGGRLVTPGTPLTLTCTASGFTFSGYYMCWVRQTPGKGLEYIGIIASSGNTYYANWAKGRFTISKTSSTTVDLKMTSLTTEDTATYFCAKPESDYVNGMGLWGPGTLVTVSS
VL: DIVMTQTPASVSDPVGGTVTIKCQASQSIYNLLSWYQQKPGQRPKLLIYDASKLASGVPSRFKGSGYGTDFTLTISDLGCADAATYYCQSNYGYSRTDDTFFYGFGGGTKVEIKR
notes: Anti-C1r antibody
B11: COR0058bb-SG1148 (antibody, human IgG1, kappa, V domains shown)
VH: QSVEESGGRLVTPGTPLTLTCTASGFDISNYNMQWVRQSPGKGLEWIGIIWSGGYTDYANWAKGRFTISATSTTVDLKSTSPTTEDTATYFCARQGANFGDYTVDLWGPGTLVTVSS
VL: AYDMTQTPASVEVAVGGTVTIKCQASQSIRSSLAWYQQKPGQRPKLLIYRASTLASGVSSRFKGSGSGTQFTLTISGVECADAATYYCQQGYSNINVDNTFGGGTKVEIKR
notes: Anti-C1r antibody

Molecular target: T1, recombinant human C1r2s2 Flag/His tetramer (human, UniProt P09871 16-688; P00736 18-705)
T1 construct: whole entries named; also called hc1r2s2; rC1r2s2
T1 chain 1: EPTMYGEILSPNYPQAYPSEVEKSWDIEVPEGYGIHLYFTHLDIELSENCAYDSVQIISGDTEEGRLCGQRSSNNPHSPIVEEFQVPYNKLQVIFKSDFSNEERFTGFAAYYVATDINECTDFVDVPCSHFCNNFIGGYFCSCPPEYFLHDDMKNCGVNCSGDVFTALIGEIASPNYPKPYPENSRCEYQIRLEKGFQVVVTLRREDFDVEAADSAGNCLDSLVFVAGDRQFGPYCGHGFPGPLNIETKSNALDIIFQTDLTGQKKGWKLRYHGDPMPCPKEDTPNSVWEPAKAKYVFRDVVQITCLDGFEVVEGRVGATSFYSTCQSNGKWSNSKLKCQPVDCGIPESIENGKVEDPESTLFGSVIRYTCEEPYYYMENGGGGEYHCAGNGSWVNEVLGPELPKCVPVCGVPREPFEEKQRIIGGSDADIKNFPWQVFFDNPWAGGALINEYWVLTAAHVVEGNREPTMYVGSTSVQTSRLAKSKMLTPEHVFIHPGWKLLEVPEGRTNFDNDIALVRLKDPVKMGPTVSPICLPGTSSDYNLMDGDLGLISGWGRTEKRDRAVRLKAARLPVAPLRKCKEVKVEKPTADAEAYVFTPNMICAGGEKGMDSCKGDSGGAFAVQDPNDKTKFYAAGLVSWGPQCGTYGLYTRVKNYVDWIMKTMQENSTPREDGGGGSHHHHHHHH
T1 chain 2: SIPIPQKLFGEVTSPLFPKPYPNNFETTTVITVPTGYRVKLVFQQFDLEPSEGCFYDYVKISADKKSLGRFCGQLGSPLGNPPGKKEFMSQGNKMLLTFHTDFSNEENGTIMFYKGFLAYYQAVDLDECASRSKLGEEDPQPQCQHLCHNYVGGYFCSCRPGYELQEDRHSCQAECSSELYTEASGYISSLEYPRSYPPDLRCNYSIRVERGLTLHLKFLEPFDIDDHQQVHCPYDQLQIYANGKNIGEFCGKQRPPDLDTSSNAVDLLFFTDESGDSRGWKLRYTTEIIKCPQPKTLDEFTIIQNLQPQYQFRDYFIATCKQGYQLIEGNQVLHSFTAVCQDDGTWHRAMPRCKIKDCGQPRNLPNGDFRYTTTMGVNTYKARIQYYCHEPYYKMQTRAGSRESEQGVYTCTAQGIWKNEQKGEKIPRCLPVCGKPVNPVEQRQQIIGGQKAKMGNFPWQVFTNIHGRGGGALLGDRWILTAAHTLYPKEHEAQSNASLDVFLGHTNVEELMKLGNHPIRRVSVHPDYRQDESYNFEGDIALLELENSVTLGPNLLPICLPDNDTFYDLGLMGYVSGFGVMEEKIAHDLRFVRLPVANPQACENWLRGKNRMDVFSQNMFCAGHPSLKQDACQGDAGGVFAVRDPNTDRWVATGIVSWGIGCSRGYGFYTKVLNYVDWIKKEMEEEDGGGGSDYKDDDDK
Experiment: SPR displacement (37 degrees C, pH 7.4): C1r2s2 captured by anti-His, C1q 100 nM pre-bound, antibody 500 nM at 10 micro L/min; time from antibody injection until the antibody sensorgram falls below the buffer sensorgram; competitor native human C1q
Procedure: An anti-His antibody (GE-Healthcare) was immobilized onto all flow cells of a CM4 sensor chip using an amine coupling kit (GE Healthcare). The antibodies, recombinant human C1r2s2 Flag/His tetramer and native human C1q (Comptech A099) were prepared in pH 7.4 buffer (20 mM ACES, 150 mM NaCl, 1.2 mM CaCl₂, 1 mg/mL BSA (IgG-free), 1 mg/mL CMD, 0.05% Tween 20, 0.005% NaN₃, pH 7.4). Recombinant human C1r2s2 Flag/His tetramer was first captured onto the sensor surface by the anti-His antibody (“hc1r2s2” in FIG. 2A). The capture levels were aimed at 200 resonance unit (RU). Native human C1q was injected at 100 nM to have a capture of 200 RU (“hc1q” in FIG. 2A), followed by antibody injection at 500 nM at 10 micro L/min for 1200 sec immediately. The sensor surface was regenerated each cycle with 10 mM Glycine-HCl (pH 1.5). For the antibodies with the C1q displacement function, the response unit of Sensorgram 2 (large dotted line; “C1r2s2+C1q+Ab” in FIGS. 2A and 2C) is lower than the response unit in Sensorgram 1 (small dotted line; “C1r2s2+C1q+buffer” in FIGS. 2A and 2C) after the time point where Sensorgrams 1 and 2 cross (“time point of crossover”). Depending on the time when Sensorgram 2 crosses over Sensorgram 1, COS0499 was categorized as a fast displacement variant. […] COS0448 was in the middle of fast displacement and slow displacement.
The time point of crossover is identified by subtraction of the buffer response (Sensorgram 1) from the antibody (Ab) response (Sensorgram 2), and referring to the time point when the differential value changes from positive to negative (Table 4). The time from the start of Ab injection is indicated in Table 4 as “time point of crossover”.

Binder | Time point of crossover (post-injection) [s]
B1 | 169
B2 | 61.9
B3 | 542

Molecular target: T1, recombinant human C1r2s2 Flag/His …
Experiment: as above
Remark: another data set of the same source
Procedure: An anti-His antibody (GE-Healthcare) is immobilized onto all flow cells of a CM4 sensor chip using an amine coupling kit (GE Healthcare). The antibodies, recombinant human C1r2s2 Flag/His tetramer and native human C1q (Comptech A099) are prepared in pH 7.4 buffer (20 mM ACES, 150 mM NaCl, 1.2 mM CaCl₂, 1 mg/mL BSA (IgG-free), 1 mg/mL CMD, 0.05% Tween 20, 0.005% NaN₃, pH 7.4). Recombinant human C1r2s2 Flag/His tetramer is first captured onto the sensor surface by the anti-His antibody (“hc1r2s2”). The capture levels are aimed at 200 resonance unit (RU). Native human C1q is injected at 100 nM to have a capture of 200 RU (“hc1q”), followed by antibody injection at 500 nM at 10 micro L/min for 1200 sec immediately. The sensor surface is regenerated each cycle with 10 mM Glycine-HCl (pH 1.5). For antibodies with the C1q displacement function, the response unit of Sensorgram 2 (in the presence of C1r2s2, C1q, and antibody) is lower than the response unit in Sensorgram 1 (in the presence of C1r2s2, C1q, and buffer, but in the absence of antibody) after the time point where Sensorgrams 1 and 2 cross (“time point of crossover”).
The time point of crossover is identified by subtraction of the buffer response (Sensorgram 1) from the antibody (Ab) response (Sensorgram 2), and referring to the time point when the differential value changes from positive to negative (Table 5).

Binder | Time point of crossover (post-injection) [s]
B4 | 216
B5 | 197
B6 | 432
B7 | 218
B8 | 85
B9 | 101
B10 | 613
B11 | 235
